Source: patent US20220033454A1 (ANWITA BIOSCIENCES, published 2022)
Each block holds one molecule with its values, some of them ahead of it.

Experiments:
[1] = target: endogenous IL-22 receptor on AsPC-1 cells (UniProt Q8N6P7); test: cell-based or functional assay
[2] = target: T1, mIL22RA1-Fc fusion protein (mouse, UniProt Q80XZ4 16-230, limits assumed); test: BLI (Octet RED96); mIL22RA1-Fc captured on AHC biosensor, fusion protein in solution at 400 nM, global fit
T1 construct: also called mouse IL-22Ra 1; IL-22Rα-1; not shown: Fc part
T1 sequence (looked up): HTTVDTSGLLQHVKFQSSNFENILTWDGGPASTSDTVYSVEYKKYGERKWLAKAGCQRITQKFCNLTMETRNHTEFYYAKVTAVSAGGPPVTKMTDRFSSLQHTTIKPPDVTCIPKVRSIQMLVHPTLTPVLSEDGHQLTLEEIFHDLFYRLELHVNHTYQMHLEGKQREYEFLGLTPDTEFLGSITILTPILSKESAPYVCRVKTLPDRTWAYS
Method: OCTET® RED96 was used to characterize the interactions of an IL-22 fusion protein with a mouse IL-22Ra 1 (mIL22RA1). Briefly, an mIL22RA1-Fc fusion protein was loaded onto an anti-human IgG Fc capture (AHC) biosensor. The biosensor was then dipped into a solution containing the IL-22 fusion protein at 400 nM. Primary experimental data was analyzed with global fitting to determine a dissociation constant (Kd).

[3] = target: T2, endogenous IL-22 receptor on AsPC-1 cells (UniProt Q8N6P7 16-574, limits assumed); test: cell-based or functional assay
T2 sequence (looked up): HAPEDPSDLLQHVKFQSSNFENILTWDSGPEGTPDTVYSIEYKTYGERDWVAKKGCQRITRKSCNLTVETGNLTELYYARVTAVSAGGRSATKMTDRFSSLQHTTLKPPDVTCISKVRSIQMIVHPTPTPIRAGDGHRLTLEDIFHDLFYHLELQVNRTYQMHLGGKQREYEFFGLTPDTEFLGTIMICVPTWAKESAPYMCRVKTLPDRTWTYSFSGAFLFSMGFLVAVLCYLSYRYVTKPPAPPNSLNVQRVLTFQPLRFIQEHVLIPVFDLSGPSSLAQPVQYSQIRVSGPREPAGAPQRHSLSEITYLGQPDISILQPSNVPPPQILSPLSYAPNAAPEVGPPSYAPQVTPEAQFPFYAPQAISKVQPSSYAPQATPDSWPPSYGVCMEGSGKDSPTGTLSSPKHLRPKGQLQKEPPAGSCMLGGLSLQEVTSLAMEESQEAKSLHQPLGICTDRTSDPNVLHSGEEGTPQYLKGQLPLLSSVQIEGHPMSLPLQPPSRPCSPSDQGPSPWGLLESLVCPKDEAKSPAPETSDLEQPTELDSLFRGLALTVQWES

EC50 of STAT3 phosphorylation (phospho-STAT3 Tyr705 HTRF) in AsPC-1 cells [1]: 90 nM
Molecule: recombinant human IL-22 (from UniProt Q9GZX6 34-179) (ligand)

Kd [2]: 1.2 nM
EC50 of STAT3 phosphorylation (phospho-STAT3 Tyr705 HTRF) in AsPC-1 cells [3]: 500 nM
B1: mIL-22-anti-HSA-mIL-22 A8 (other)
chain: LPVNTRCKLEVSNFQQPYIVNRTFMLAKEASLADNNTDVRLIGEKLFRGVSAKDQCYLMKQVLNFTLEDVLLPQSDRFQPYMQEVVPFLTKLSNQLSSCHISGDDQNIQKNVRRLKETVKKLGESGEIKAIGELDLLFMSLRNACVSGGGGSGGGGSGGGGSEVQLVESGGGLVQPGGSLRLSCAASGSTWSINTLAWYRQAPGKQRDLVARISSGGSTYYADSVKGRFTISRDNSKNTLYLQMNSLRAEDTAVYYCYAQSTWYPPSWGQGTLVTVSSGGGSGGGSGGGSGGGSLPVNTRCKLEVSNFQQPYIVNRTFMLAKEASLADNNTDVRLIGEKLFRGVSAKDQCYLMKQVLNFTLEDVLLPQSDRFQPYMQEVVPFLTKLSNQLSSCHISGDDQNIQKNVRRLKETVKKLGESGEIKAIGELDLLFMSLRNACV
notes: Single-chain fusion with two IL-22 domains, expressed in ExpiCHO cells; also called fusion protein A8

Kd [2]: 300 nM
EC50 of STAT3 phosphorylation (phospho-STAT3 Tyr705 HTRF) in AsPC-1 cells [3]: 800 nM
B2: hIL-22-anti-HSA A1 (other)
chain: APISSHCRLDKSNFQQPYITNRTFMLAKEASLADNNTDVRLIGEKLFHGVSMSERCYLMKQVLNFTLEEVLFPQSDRFQPYMQEVVPFLARLSNRLSTCHIEGDDLHIQRNVQKLKDTVKKLGESGEIKAIGELDLLFMSLRNACISGGGGSGGGGSGGGGSEVQLVESGGGLVQPGGSLRLSCAASGSTWSINTLAWYRQAPGKQRDLVARISSGGSTYYADSVKGRFTISRDNSKNTLYLQMNSLRAEDTAVYYCYAQSTWYPPSWGQGTLVTVSS
notes: Single-chain fusion of IL-22 and an anti-HSA VHH, expressed in ExpiCHO cells; also called fusion protein A1

Kd [2]: 0.77 nM
EC50 of STAT3 phosphorylation (phospho-STAT3 Tyr705 HTRF) in AsPC-1 cells [3]: 500 nM
B3: mIL-22-anti-HSA-mIL-22 A9 (other)
chain: LPVNTRCKLEVSNFQQPYIVNRTFMLAKEASLADNNTDVRLIGEKLFRGVSAKDQCYLMKQVLNFTLEDVLLPQSDRFQPYMQEVVPFLTKLSNQLSSCHISGDDQNIQKNVRRLKETVKKLGESGEIKAIGELDLLFMSLRNACVSGGGGSGGGGSGGGGSQVQLVESGGGVVQPGGSLRLSCAASGFAFRGFGMSWVRQAPGKGLEWVSSINNGGSDTYYADSVKGRFTISRDNSKNTLYLQMNSLRAEDTAVYYCAIGGPGASPSGQGTQVTVSSGGGSGGGSGGGSGGGSLPVNTRCKLEVSNFQQPYIVNRTFMLAKEASLADNNTDVRLIGEKLFRGVSAKDQCYLMKQVLNFTLEDVLLPQSDRFQPYMQEVVPFLTKLSNQLSSCHISGDDQNIQKNVRRLKETVKKLGESGEIKAIGELDLLFMSLRNACV
notes: Single-chain fusion with two IL-22 domains, expressed in ExpiCHO cells

Kd [2]: 1.4 nM
B4: mIL-22-hIgG1 Fc B1 (Fc fusion)
chain: LPVNTRCKLEVSNFQQPYIVNRTFMLAKEASLADNNTDVRLIGEKLFRGVSAKDQCYLMKQVLNFTLEDVLLPQSDRFQPYMQEVVPFLTKLSNQLSSCHISGDDQNIQKNVRRLKETVKKLGESGEIKAIGELDLLFMSLRNACVARGPTIKPCPPCKCPAPNLLGGPSVFIFPPKIKDVLMISLSPIVTCVVVDVSEDDPDVQISWFVNNVEVHTAQTQTHREDYNSTLRVVSALPIQHQDWMSGKEFKCKVNNKDLPAPIERTISKPKGSVRAPQVYVLPPPEEEMTKKQVTLTCMVTDFMPEDIYVEWTNNGKTELNYKNTEPVLDSDGSYFMYSKLRVEKKNWVERNSYSCSVVHEGLHNHHTTKSFSRTPGK

Kd [2]: 61 nM
EC50 of STAT3 phosphorylation (phospho-STAT3 Tyr705 HTRF) in AsPC-1 cells [3]: 700 nM
B5: mIL-22-anti-HSA A2 (other)
chain: LPVNTRCKLEVSNFQQPYIVNRTFMLAKEASLADNNTDVRLIGEKLFRGVSAKDQCYLMKQVLNFTLEDVLLPQSDRFQPYMQEVVPFLTKLSNQLSSCHISGDDQNIQKNVRRLKETVKKLGESGEIKAIGELDLLFMSLRNACVSGGGGSGGGGSGGGGSEVQLVESGGGLVQPGGSLRLSCAASGSTWSINTLAWYRQAPGKQRDLVARISSGGSTYYADSVKGRFTISRDNSKNTLYLQMNSLRAEDTAVYYCYAQSTWYPPSWGQGTLVTVSS
notes: Single-chain fusion, expressed in ExpiCHO cells; also called fusion protein A2

Kd [2]: 67 nM
EC50 of STAT3 phosphorylation (phospho-STAT3 Tyr705 HTRF) in AsPC-1 cells [3]: 600 nM
B6: mIL-22-anti-HSA A4 (other)
chain: LPVNTRCKLEVSNFQQPYIVNRTFMLAKEASLADNNTDVRLIGEKLFRGVSAKDQCYLMKQVLNFTLEDVLLPQSDRFQPYMQEVVPFLTKLSNQLSSCHISGDDQNIQKNVRRLKETVKKLGESGEIKAIGELDLLFMSLRNACVSGGGGSGGGGSGGGGSQVQLVESGGGVVQPGGSLRLSCAASGFAFRGFGMSWVRQAPGKGLEWVSSINNGGSDTYYADSVKGRFTISRDNSKNTLYLQMNSLRAEDTAVYYCAIGGPGASPSGQGTQVTVSS
notes: Single-chain fusion, expressed in ExpiCHO cells

Kd [2]: 30 nM
EC50 of STAT3 phosphorylation (phospho-STAT3 Tyr705 HTRF) in AsPC-1 cells [3]: 500 nM
B7: Anti-HSA-mIL-22 A3 (other)
chain: QVQLVESGGGVVQPGGSLRLSCAASGFAFRGFGMSWVRQAPGKGLEWVSSINNGGSDTYYADSVKGRFTISRDNSKNTLYLQMNSLRAEDTAVYYCAIGGPGASPSGQGTQVTVSSGGGSGGGSGGGSGGGSLPVNTRCKLEVSNFQQPYIVNRTFMLAKEASLADNNTDVRLIGEKLFRGVSAKDQCYLMKQVLNFTLEDVLLPQSDRFQPYMQEVVPFLTKLSNQLSSCHISGDDQNIQKNVRRLKETVKKLGESGEIKAIGELDLLFMSLRNACV
notes: as for B6
